According to doi:10.1101/2023.08.11.553006, “Short oligomers rather than rings of human RAD52 promote single-strand annealing” (bioRxiv, 2023):
Where “and” joins values, the source holds several entries; their conditions need not be identical. Identical values can stand only once.

B1: truncated RAD52(209) (domain or fragment, human, UniProt P43351 1-209, looked up)
chain: MSGTEEAILGGRDSHPAAGGGSVLCFGQCQYTAEEYQAIQKALRQRLGPEYISSRMAGGGQKVCYIEGHRVINLANEMFGYNGWAHSITQQNVDFVDLNNGKFYVGVCAFVRVQLKDGSYHEDVGYGVSEGLKSKALSLEKARKEAVTDGLKRALRSFGNALGNCILDKDYLRSLNKLPRQLPLEVDLTKAKRQDLEPSVEEARYNSCR
notes: expected monomer molecular weight printed as 25.3 kDa; No removal of the tag is described; Plasmid was a gift from S.C; West; also called C-terminally truncated RAD52; source: E. coli BL21(DE3) with pRARE, purified (His-trap Ni-NTA, Hiload 16/600 superdex)
B2: 48/60 nt annealed product (dsDNA)
DNA 1: GCAATTAAGCTCTAAGCCATCCGCAAAAATGACCTCTTATCAAAAGGA
DNA 2: TCCTTTTGATAAGAGGTCATTTTTGCGGATGGCTTAGAGCTTAATTGCTTTTTTTTTTTT
B3: full-length human RAD52 (natural protein, UniProt P43351 1-418, looked up)
chain: MSGTEEAILGGRDSHPAAGGGSVLCFGQCQYTAEEYQAIQKALRQRLGPEYISSRMAGGGQKVCYIEGHRVINLANEMFGYNGWAHSITQQNVDFVDLNNGKFYVGVCAFVRVQLKDGSYHEDVGYGVSEGLKSKALSLEKARKEAVTDGLKRALRSFGNALGNCILDKDYLRSLNKLPRQLPLEVDLTKAKRQDLEPSVEEARYNSCRPNMALGHPQLQQVTSPSRPSHAVIPADQDCSSRSLSSSAVESEATHQRKLRQKQLQQQFRERMEKQQVRVSTPSAEKSEAAPPAPPVTHSTPVTVSEPLLEKDFLAGVTQELIKTLEDNSEKWAVTPDAGDGVVKPSSRADPAQTSDTLALNNQMVTQNRTPHSVCHQKPQAKSGSWDLQTYSADQRTTGNWESHRKSQDMKKRKYDPS
notes: RAD52, human, full length; expected monomer molecular weight printed as 48.4 kDa; No removal of the tag is described; Plasmid was a gift from W. Kagawa; source: E. coli BL21(DE3) with pRARE, purified (His-trap Ni-NTA, Hiload 16/600 superdex)

Tests used:
[1] = target: the molecule itself; assay: mass photometry; label-free single molecules landing on glass slides; Buffer 1 (Tris-HCl 20 mM, NaCl 50 mM, pH 7.5); nanomolar protein concentrations, increasing series; protomers to rings
RAD52(209) = target: T1, RAD52(209) (Homo sapiens, UniProt P43351 1-209); assay: EMSA (native annealing gel); 50-200 nM protein: annealed product runs at protein-free level; at 1 uM a ring band contains both strands (annealed or not unclear); EMSA: 25 mM Tris-acetate pH 7.5, 2 mM Mg(OAc)2, 1 mM DTT, 10 nM ssDNA, 25 C 10 min or 37 C 5 min; mass photometry: 20 mM Tris-HCl pH 7.5, 50 mM NaCl; conditions: protein: recombinant; tags: His tag (pET-15b, Ni-NTA); chain copies: 11; label: 3'-ALEXA488 (Methods: ATTO488) on 48 nt; 3'-ATTO680 on 60 nt; 3' overhang 12 nt (T12) on strand 2
T1 sequence: B1 chain

| Binder | stoichiometry N [1] | binding result (RAD52(209)) |
| --- | --- | --- |
| B1 | 11 protomers per ring |  |
| B2 |  | no binding |
| B3 | 7 protomers per ring to 13 protomers per ring (2×) and 10 protomers per ring and 10.6 protomers per ring |  |
